# Results from patent US20130184160, “NUCLEOTIDES AND APTAMERS CONTAINING BORONIC ACID GROUPS HAVING BIASED BINDING TO GLYCOSYLATED PROTEINS, AND USES THEREOF” (published 2013).
# T1: Fetuin (UniProt P12763 P12763:19-359)
# T1 sequence: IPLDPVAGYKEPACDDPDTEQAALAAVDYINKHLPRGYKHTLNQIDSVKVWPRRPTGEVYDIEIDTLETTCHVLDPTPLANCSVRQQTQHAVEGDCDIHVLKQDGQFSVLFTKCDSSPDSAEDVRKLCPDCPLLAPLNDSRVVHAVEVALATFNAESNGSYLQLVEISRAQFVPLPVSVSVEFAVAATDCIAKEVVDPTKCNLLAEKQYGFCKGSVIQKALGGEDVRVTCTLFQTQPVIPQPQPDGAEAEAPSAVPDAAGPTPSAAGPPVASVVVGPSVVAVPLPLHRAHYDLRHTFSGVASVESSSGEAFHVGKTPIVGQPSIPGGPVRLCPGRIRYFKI
# Tests used:
# [1] = molecular target: Fibrinogen, periodate-treated (UniProt P02671-2;P02675;P02679 P02671-2:20-644,P02675:31-491,P02679:27-453); test: filter; same buffer; conditions: tags: glycans oxidised with sodium periodate; chain copies: 2; label: alpha-32P-dATP
# Fibrinogen, periodate-treated, sequence (P02671 other isoform, or with tags, fused parts or gaps, chain 1 of 3): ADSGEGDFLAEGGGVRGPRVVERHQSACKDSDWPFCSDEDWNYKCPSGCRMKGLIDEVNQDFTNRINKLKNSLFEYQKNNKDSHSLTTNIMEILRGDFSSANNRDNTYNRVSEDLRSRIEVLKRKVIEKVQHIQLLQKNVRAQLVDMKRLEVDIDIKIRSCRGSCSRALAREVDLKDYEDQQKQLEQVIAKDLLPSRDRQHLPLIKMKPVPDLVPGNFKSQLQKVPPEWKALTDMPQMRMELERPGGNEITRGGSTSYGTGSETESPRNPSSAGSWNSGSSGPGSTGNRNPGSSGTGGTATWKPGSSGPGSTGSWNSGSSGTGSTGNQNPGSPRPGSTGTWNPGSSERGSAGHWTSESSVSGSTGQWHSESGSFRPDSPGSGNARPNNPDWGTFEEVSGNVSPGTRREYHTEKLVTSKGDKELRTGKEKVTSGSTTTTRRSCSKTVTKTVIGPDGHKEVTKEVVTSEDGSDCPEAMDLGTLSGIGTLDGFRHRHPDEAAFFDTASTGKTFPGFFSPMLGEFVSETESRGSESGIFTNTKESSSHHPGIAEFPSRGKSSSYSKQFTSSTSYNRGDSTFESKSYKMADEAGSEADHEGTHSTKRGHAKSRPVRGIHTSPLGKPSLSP
# Fibrinogen, periodate-treated, sequence (P02675 31-491, chain 2 of 3): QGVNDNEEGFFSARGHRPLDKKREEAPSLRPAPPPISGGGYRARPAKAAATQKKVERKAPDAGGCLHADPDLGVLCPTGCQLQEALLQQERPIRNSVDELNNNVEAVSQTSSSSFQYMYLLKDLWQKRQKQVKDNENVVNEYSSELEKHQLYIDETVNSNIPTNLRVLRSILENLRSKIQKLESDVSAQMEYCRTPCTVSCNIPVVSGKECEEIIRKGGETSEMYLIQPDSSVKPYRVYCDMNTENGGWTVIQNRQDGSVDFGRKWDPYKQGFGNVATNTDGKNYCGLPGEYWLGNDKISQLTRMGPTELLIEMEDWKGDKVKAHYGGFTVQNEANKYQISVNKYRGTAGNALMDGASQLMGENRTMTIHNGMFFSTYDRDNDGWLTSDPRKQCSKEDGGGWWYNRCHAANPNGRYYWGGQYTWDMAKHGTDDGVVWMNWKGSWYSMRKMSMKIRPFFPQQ
# Fibrinogen, periodate-treated, sequence (P02679 27-453, chain 3 of 3): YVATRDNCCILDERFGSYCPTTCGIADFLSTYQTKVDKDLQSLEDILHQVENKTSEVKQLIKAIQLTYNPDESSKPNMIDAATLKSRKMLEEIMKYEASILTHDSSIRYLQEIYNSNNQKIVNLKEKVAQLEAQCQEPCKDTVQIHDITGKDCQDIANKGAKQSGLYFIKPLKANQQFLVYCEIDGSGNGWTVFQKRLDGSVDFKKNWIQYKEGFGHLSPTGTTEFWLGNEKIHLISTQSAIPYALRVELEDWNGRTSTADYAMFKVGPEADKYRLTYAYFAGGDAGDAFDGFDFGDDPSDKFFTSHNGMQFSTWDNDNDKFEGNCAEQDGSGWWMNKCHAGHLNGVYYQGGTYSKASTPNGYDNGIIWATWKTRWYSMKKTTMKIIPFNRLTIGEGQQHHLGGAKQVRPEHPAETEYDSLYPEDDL
# Experimental: (§1) Dissociation constants in solution were determined by equilibrium filtration (Jenison et al., Science 1994, 263, 1425-1429; Huang & Szostak, RNA 2003, 9: 1456-1463, incorporated herein by reference in their entireties). Using this technique, the bound and unbound ligand (DNA) partition between the two portions separated by a membrane. DNA was first amplified into dsDNA using two primers by PCR (25 cycles of 0.5 min at 94° C., 0.5 min at 46° C., and 0.5 min at 72° C., followed by 5 min at 72° C.). The dsDNA product was then split into ssDNA using one primer and α-³²P-dATP by one-round PCR. The ³²P-labeled ssDNA ligand (10 nM) and the protein (1-1000 nM) in the 100 μL of binding buffer were incubated for 15 min at 25° C. prior to loading into the Microcon YM-100 unit (Millipore, Billerica, Mass.). The solution was centrifuged at 13,000 g for 10 sec to saturate the membrane, and the filtrate was transferred back to the unit. The solution was centrifuged for another 20 sec, and the filtrate (about 10 μL) was collected. Aliquots (10 μL) were taken from both the remaining solution and the filtrate, and radioactivity in each aliquot was determined by Beckman LS 6500 liquid scintillation counter. All binding assays were duplicated. The equilibrium dissociation constants (Kd) of the ligand-protein interaction were obtained by fitting the dependence of bound fractions of specific binding on the concentration of the aptamers to the equation Y=B max X/(Kd+X), using the SigmaPlot program.
# (§2) To determine the extent to which the aptamers 85A (SEQ ID NO.: 13), 85B (SEQ ID NO.: 14), and 85C (SEQ ID NO.: 15) bind specifically to fibrinogen, their dissociation constants (Kd) were measured using the equilibrium filtration method with radiolabeled α-³²P-dATP. The target substrate to which the aptamer was binding was fibrinogen (FIG. 12A), deglycosylated fibrinogen (FIG. 12B) and periodated fibrinogen (FIG. 12C).
# [2] = molecular target: Fibrinogen, deglycosylated (UniProt P02671-2;P02675;P02679 P02671-2:20-644,P02675:31-491,P02679:27-453); test: filter; same buffer; conditions: tags: chemically deglycosylated with TFMS; chain copies: 2; label: alpha-32P-dATP
# Fibrinogen, deglycosylated, sequence (P02671 other isoform, or with tags, fused parts or gaps, chain 1 of 3): as the sequence (P02671 other isoform, or with tags, fused parts or gaps, chain 1 of 3) above
# Fibrinogen, deglycosylated, sequence (P02675 31-491, chain 2 of 3): as the sequence (P02675 31-491, chain 2 of 3) above
# Fibrinogen, deglycosylated, sequence (P02679 27-453, chain 3 of 3): as the sequence (P02679 27-453, chain 3 of 3) above
# Experimental: as §1, §2
# [3] = molecular target: T2, Fibrinogen (glycosylated, untreated) (UniProt P02671-2;P02675;P02679 P02671-2:20-644,P02675:31-491,P02679:27-453); test: filter; same buffer; 193 nM in Table 1; conditions: chain copies: 2; label: alpha-32P-dATP
# T2 sequence (P02671 other isoform, or with tags, fused parts or gaps, chain 1 of 3): as the sequence (P02671 other isoform, or with tags, fused parts or gaps, chain 1 of 3) above
# T2 sequence (P02675 31-491, chain 2 of 3): as the sequence (P02675 31-491, chain 2 of 3) above
# T2 sequence (P02679 27-453, chain 3 of 3): as the sequence (P02679 27-453, chain 3 of 3) above
# Experimental: as §1, with “The solution was centrifuged for another 20 sec, and the filtrate (about 10 μL) was collected.” left out, “All binding assays were duplicated. The equilibrium dissociation constants (Kd) of the ligand-protein interaction were obtained by fitting the dependence of bound fractions of specific binding on the concentration of the aptamers to the equation Y=B max X/(Kd+X), using the SigmaPlot program.” left out
# (§3) To determine the extent to which the aptamers 85A (SEQ ID NO.: 13), 85B (SEQ ID NO.: 14), and 85C (SEQ ID NO.: 15) bind specifically to fibrinogen, their dissociation constants (Kd) were measured using the equilibrium filtration method with radiolabeled α-³²P-dATP. […]
# [4] = molecular target: T2, Fibrinogen (glycosylated, untreated); test: filter; same buffer; 64 nM in Table 1; conditions: chain copies: 2; label: alpha-32P-dATP
# Experimental: as §1, with “The solution was centrifuged for another 20 sec, and the filtrate (about 10 μL) was collected.” left out, “All binding assays were duplicated. The equilibrium dissociation constants (Kd) of the ligand-protein interaction were obtained by fitting the dependence of bound fractions of specific binding on the concentration of the aptamers to the equation Y=B max X/(Kd+X), using the SigmaPlot program.” left out
# as §3
# [5] = molecular target: T2, Fibrinogen (glycosylated, untreated); test: filter; same buffer; 102 nM in Table 1; conditions: chain copies: 2; label: alpha-32P-dATP
# Experimental: as §1, with “The solution was centrifuged for another 20 sec, and the filtrate (about 10 μL) was collected.” left out, “All binding assays were duplicated. The equilibrium dissociation constants (Kd) of the ligand-protein interaction were obtained by fitting the dependence of bound fractions of specific binding on the concentration of the aptamers to the equation Y=B max X/(Kd+X), using the SigmaPlot program.” left out
# as §3
# [6] = molecular target: Alpha-1 acid glycoprotein (UniProt P02763 P02763:19-201); test: filter; specificity control; conditions: label: alpha-32P-dATP
# Alpha-1 acid glycoprotein, sequence (P02763 19-201, one chain of several): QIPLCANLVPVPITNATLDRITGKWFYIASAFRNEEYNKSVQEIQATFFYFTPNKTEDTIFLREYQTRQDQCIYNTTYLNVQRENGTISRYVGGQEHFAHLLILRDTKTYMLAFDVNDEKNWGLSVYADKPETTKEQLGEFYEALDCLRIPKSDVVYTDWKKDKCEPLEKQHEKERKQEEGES
# Fetuin = molecular target: T1, Fetuin; test: filter; specificity control; conditions: label: alpha-32P-dATP
# [7] = molecular target: T2, Fibrinogen (glycosylated, untreated); test: filter; same buffer; conditions: chain copies: 2; label: alpha-32P-dATP
# Experimental: as §1, §2
# [8] = molecular target: T2, Fibrinogen (glycosylated, untreated); test: filter; same buffer; boronic acid destroyed by peroxide; conditions: chain copies: 2; label: alpha-32P-dATP
binder,measurement,setting,value
85C TTP (ssDNA) DNA: CCTTCGTTGTCTGCCTTCGTAGTCGACTCTGACGCATGGACGTATCCTGTGCGTATGCATTATGAAGCACACCCTTCAGAATTCGCACCA,Kd,[1],321 nM
same,Kd,[2],256 nM
same,Kd,[3],122 nM
85B TTP (ssDNA) DNA: CCTTCGTTGTCTGCCTTCGTAGGACCGCAGACATCGACGCAGGGAAATTCCGCAAGTCCAGCCAAATGCCACCCTTCAGAATTCGCACCA,Kd,[4],63.8 nM
same,Kd,[1],130 nM
same,Kd,[2],140 nM
85A TTP (ssDNA) DNA: CCTTCGTTGTCTGCCTTCGTAGCGGATCGAATTACGCGTTAACGGCAACCGATAACGGGACCGATTGCACACCCTTCAGAATTCGCACCA,Kd,[5],102 nM
same,Kd,[1],67.4 nM
same,Kd,[2],60.2 nM
same,Kd,[6],600 nM
same,Kd,Fetuin,1600 nM
"85A M-TTP (ssDNA, T positions from M-TTP (alkyne-modified dU without boronic acid)) DNA: CCTTCGTTGTCTGCCTTCGTAGCGGATCGAATTACGCGTTAACGGCAACCGATAACGGGACCGATTGCACACCCTTCAGAATTCGCACCA",Kd,[7],138 nM
"85A B-TTP H2O2-treated (ssDNA, B-TTP positions with boronic acid oxidised by peroxide) DNA: CCTTCGTTGTCTGCCTTCGTAGCGGATCGAATTACGCGTTAACGGCAACCGATAACGGGACCGATTGCACACCCTTCAGAATTCGCACCA",Kd,[8],173 nM
